# In the Immune Epitope Database (IEDB):
# How the values were obtained:
# HLA-B*58:01 [1] = test: IEDB peptide-MHC binding, purified MHC/competitive/fluorescence; filed as Kd, often an IC50 or EC50 that approximates it; ≥ and ≤ were set here for values at or beyond the usual limits of such assays; details: source organism: Influenza A virus (A/X-31(H3N2))
# HLA-B*39:01 = test: as above; details: source organism: Homo sapiens
# HLA-B*18:01 = test: as above; details: source organism: Homo sapiens
# HLA-B*57:01 = test: as above; details: source organism: Homo sapiens
# HLA-B*15:01 [2] = test: as above; details: source organism: Homo sapiens
# HLA-B*46:01 = test: as above; details: source organism: Homo sapiens
# HLA-A*26:01 [3] = test: as above; details: source organism: Homo sapiens
# HLA-B*51:01 = test: as above; details: source organism: Homo sapiens
# HLA-A*69:01 [4] = test: as above; details: source organism: Homo sapiens
# HLA-B*27:03 = test: as above; details: source organism: Homo sapiens
# HLA-C*05:01 = test: IEDB peptide-MHC binding, purified MHC/direct/fluorescence; filed as Kd, often an IC50 or EC50 that approximates it; ≥ and ≤ were set here for values at or beyond the usual limits of such assays; details: source organism: Homo sapiens
# HLA-A*01:01 = test: as above
# HLA-B*08:01 [5] = test: IEDB peptide-MHC binding, purified MHC/competitive/fluorescence; ≥ and ≤ were set here for values at or beyond the usual limits of such assays; details: source organism: Zaire ebolavirus
# HLA-A*02:01 [6] = test: as above; details: source organism: Zaire ebolavirus
# HLA-A*31:01 = test: IEDB peptide-MHC binding, purified MHC/direct/fluorescence; filed as Kd, often an IC50 or EC50 that approximates it; ≥ and ≤ were set here for values at or beyond the usual limits of such assays; details: source organism: Pseudomonas aeruginosa
# HLA-A*24:03 = test: as above; details: source organism: Pseudomonas aeruginosa UCBPP-PA14
# HLA-B*58:01 [7] = test: as above; details: source organism: Pseudomonas aeruginosa UCBPP-PA14
# HLA-B*15:01 [8] = test: as above; details: source organism: Pseudomonas aeruginosa UCBPP-PA14
# HLA-B*27:05 = test: as above; details: source organism: Pseudomonas aeruginosa UCBPP-PA14
# HLA-B*40:01 = test: as above; details: source organism: Pseudomonas aeruginosa UCBPP-PA14
# HLA-A*30:01 = test: as above; details: source organism: Pseudomonas aeruginosa
# HLA-B*07:02 = test: as above; details: source organism: Pseudomonas aeruginosa UCBPP-PA14
# HLA-B*08:01 [9] = test: as above; details: source organism: Pseudomonas aeruginosa
# HLA-A*26:01 [10] = test: as above; details: source organism: Pseudomonas aeruginosa UCBPP-PA14
# HLA-A*69:01 [11] = test: as above; details: source organism: Pseudomonas aeruginosa UCBPP-PA14
# HLA-A*03:01 = test: as above; details: source organism: Pseudomonas aeruginosa
# HLA-A*11:01 = test: as above; details: source organism: Pseudomonas aeruginosa
# HLA-A*02:01 [12] = test: as above; details: source organism: Pseudomonas aeruginosa
sequence,measurement,setting,value
VSSFQDILL,Kd,HLA-B*58:01 [1],0.687 µM
VTDTALAYF,Kd,HLA-B*39:01,≥ 20 µM
same,Kd,HLA-B*18:01,≥ 20 µM
same,Kd,HLA-B*57:01,≥ 20 µM
same,Kd,HLA-B*15:01 [2],≥ 20 µM
same,Kd,HLA-B*46:01,≥ 20 µM
same,Kd,HLA-A*26:01 [3],≥ 20 µM
same,Kd,HLA-B*51:01,≥ 20 µM
same,Kd,HLA-A*69:01 [4],≥ 20 µM
same,Kd,HLA-B*27:03,≥ 20 µM
same,Kd,HLA-C*05:01,0.005 µM
same,Kd,HLA-A*01:01; source organism: Homo sapiens,0.0009 µM
YQQLREAAT,IC50,HLA-B*08:01 [5],≥ 183 µM
same,IC50,HLA-A*02:01 [6],29.7 µM
YTFCRLNVK,Kd,HLA-A*31:01,0.265 µM
same,Kd,HLA-A*24:03,≥ 20 µM
same,Kd,HLA-B*58:01 [7],≥ 20 µM
same,Kd,HLA-B*15:01 [8],≥ 20 µM
same,Kd,HLA-B*27:05,≥ 20 µM
same,Kd,HLA-B*40:01,≥ 20 µM
same,Kd,HLA-A*30:01,0.0138 µM
same,Kd,HLA-B*07:02,≥ 20 µM
same,Kd,HLA-B*08:01 [9],10.6 µM
same,Kd,HLA-A*26:01 [10],≥ 20 µM
same,Kd,HLA-A*69:01 [11],≥ 20 µM
same,Kd,HLA-A*03:01,0.213 µM
same,Kd,HLA-A*01:01; source organism: Pseudomonas aeruginosa,2.36 µM
same,Kd,HLA-A*11:01,0.0487 µM
same,Kd,HLA-A*02:01 [12],11.5 µM
